4 substances from patent US20260284219A1, “ANTIBODY CONJUGATE, AND USES THEREOF” (Acepodia Biotechnologies, Ltd., priority 2024, published 2026) can be followed below.

By EC50 is commonly meant the midpoint of the concentration-response curve.

The target of data set [1] is His-tagged human PDL1 recombinant protein (Homo sapiens, UniProt Q9NZQ7). As to the kind of experiment: Binding affinity ELISA on plates coated with PDL1. The conditions noted are these: for EC50: N = 3; for EC50 of the conjugate relative to EC50 of atezolizumab: PDL1 binding; for PDL1 binding signal compared with atezolizumab: among the concentration range, signal at 450 nm. The procedure:
The blocked His-tagged human PDL1 recombinant protein-coated white plate was then incubated with atezolizumab, atezolizumab-govitecan (DAR10), or the isotype control antibody at different concentrations at 37° C. for 1 hour. The unbound atezolizumab, atezolizumab-govitecan (DAR10), or the isotype control antibody was washed away with PBST.
The blocked His-tagged human PDL1 recombinant protein-coated white plate was then incubated with atezolizumab or atezolizumab-deruxtecan-vcMMAE (DAR 10) at different concentrations at 37° C. for 1 hour. The unbound atezolizumab or atezolizumab-deruxtecan-vcMMAE (DAR 10) was washed away with PBST.
A general note: In an ELISA, binding on a coated surface is turned into a signal by an enzyme label.

A short description of data set [2]: Aggregation by size exclusion chromatography HPLC (SEC-HPLC). Format: physicochemical. The following applies: SEC-HPLC of DAR10 dual-payload antibody drug conjugates. A general note: SEC sorts molecules by how far they enter the pores of the column.
For data set [3], the system named is human triple-negative breast cancer MDA-MB-231 cells. Nature of the data set: Cytotoxicity assay (CellTiter-Glo 2.0), MDA-MB-231. Format: cell-based. The conditions noted are these: for cytotoxicity against MDA-MB-231: atezolizumab conjugates, 0.01-500 nM for 6 days; for cancer cells killed compared with atezolizumab: MDA-MB-231, 6 days, FIG. 6B. (In general: In ATP-based viability assays light output follows the ATP content of the culture.)
Procedure: Each condition was performed in triplicate. On the harvesting day, the number of viable cells in each well were measured according to the CellTiter-Glo™ 2.0 Assay process.

Chain of His-tagged human PDL1 recombinant protein (Q9NZQ7 19-290): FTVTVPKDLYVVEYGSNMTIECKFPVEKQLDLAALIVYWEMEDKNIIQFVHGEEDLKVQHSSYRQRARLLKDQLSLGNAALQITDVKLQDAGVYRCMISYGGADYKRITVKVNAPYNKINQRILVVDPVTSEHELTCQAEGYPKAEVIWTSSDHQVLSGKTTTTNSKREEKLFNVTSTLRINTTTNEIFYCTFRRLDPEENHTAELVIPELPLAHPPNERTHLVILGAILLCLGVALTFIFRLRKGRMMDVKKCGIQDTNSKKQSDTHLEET

On to “atezolizumab-deruxtecan-vcMMAE (DAR 10): Atezolizumab with 8 deruxtecan on cysteines and 2 vcMMAE on light-chain lysines (DAR10)”, for which the EC50 in data set [1] (Embodiment 2-3, FIG. 9) worked out at 1.56 nM. Moreover, in data set [1], the “EC50 of the conjugate relative to EC50 of atezolizumab” value is given as “less than 2 times” and the “PDL1 binding signal compared with atezolizumab” value is reported as “no significant difference of signal detection”. The protein aggregation entry in data set [2] is given as “resistant to protein aggregation”. Besides, the “cytotoxicity against MDA-MB-231” value in data set [3] is “better cytotoxicity”.
For the substance “atezolizumab-govitecan (DAR8): Atezolizumab with 8 govitecan conjugated to cysteines by procedure (A) only (DAR8)”, in data set [3], the “cancer cells killed compared with atezolizumab” value turned out to be 25%.
With “atezolizumab-govitecan (DAR10): Atezolizumab with 8 govitecan on light and heavy chain cysteines and 2 govitecan on light-chain lysines (DAR10)”, the EC50 in data set [1] (Embodiment 1-3, FIG. 5) came out at 0.75 nM. Also, in data set [1], the “EC50 of the conjugate relative to EC50 of atezolizumab” value was “less than 2 times” and the “PDL1 binding signal compared with atezolizumab” value is on record as “no significant difference of signal detection”. Further, the protein aggregation result in data set [2] is “resistant to protein aggregation”. Further, in data set [3], the “cancer cells killed compared with atezolizumab” value is given as 50% and the “cytotoxicity against MDA-MB-231” value is recorded as “better cytotoxicity”. For the same substance, the “cytotoxicity against MDA-MB-231” value in data set [3] (listed as PDP-PDL1 mab-govitecan) is reported as “exhibits cytotoxicity”.
Turning to “atezolizumab: commercially available anti-PDL1 IgG1 antibody (DAR0) [reference compound]”, the EC50 in data set [1] (Embodiment 1-3, FIG. 5) is 0.55 nM; in data set [1] (Embodiment 2-3, FIG. 9), 1.4 nM.
